Data from article PMC9851154.
Positions count from the first letter of the chain named. Numbers in names are those of the source.

B1: NOV1 (Novosphingobium aromaticivorans DSM 12444) (protein)
chain: MAQFPNTPSFTGFNTPSRIEADIADLAHEGTIPQGLNGAFYRVQPDPQFPPRLDDDIAFNGDGMITRFHIHDGQVDFRQRWAKTDKWKLENAAGKALFGAYRNPLTDDEAVKGEIRSTANTNAFVFGGKLWAMKEDSPALVMDPATMETFGFEKFGGKMTGQTFTAHPKVDPKTGNMVAIGYAASGLCTDDVTYMEVSPEGELVREVWFKVPYYCMMHDFGITEDYLVLHIVPSIGSWERLEQGKPHFGFDTTMPVHLGIIPRRDGVRQEDIRWFTRDNCFASHVLNAWQEGTKIHFVTCEAKNNMFPFFPDVHGAPFNGMEAMSHPTDWVVDMASNGEDFAGIVKLSDTAAEFPRIDDRFTGQKTRHGWFLEMDMKRPVELRGGSAGGLLMNCLFHKDFETGREQHWWCGPVSSLQEPCFVPRAKDAPEGDGWIVQVCNRLEEQRSDLLIFDALDIEKGPVATVNIPIRLRFGLHGNWANADEIGLAEKVLAA
B2: NOV1 (Novosphingobium aromaticivorans DSM 12444; S283F) (protein)
chain: B1 chain with S283F

How the values were obtained:
purified protein [1] = substrate: Oc1ccc(/C=C/c2cc(O)cc(O)c2)cc1; assay: purified protein; type: biochemical, Novosphingobium aromaticivorans; conditions: apparent, 0.1 M Tris-HCl pH 9, room temperature
purified protein [2] = substrate: CC=Cc1ccc(O)c(OC)c1; assay: purified protein; type: biochemical, Novosphingobium aromaticivorans; conditions: apparent, 0.1 M Tris-HCl pH 9, room temperature

Protein	Km (purified protein [1]) [µM]	kcat (purified protein [1]) [s⁻¹]	kcat/Km (purified protein [1]) [M⁻¹ s⁻¹]	Km (purified protein [2]) [µM]	kcat (purified protein [2]) [s⁻¹]	kcat/Km (purified protein [2]) [M⁻¹ s⁻¹]
B1	60 ± 10	0.38 ± 0.02	6300 ± 200	600 ± 100	7.3 ± 0.2	12200 ± 2000
B2	227 ± 2	0.078 ± 0.004	340 ± 20	800 ± 100	14.5 ± 0.8	18100 ± 4000
